Assay results from article PMC9482650, “Quantitative fragmentomics allow affinity mapping of interactomes” (Nature Communications, 2022).

T1: APBA1_1, Q02410
T1 sequence (Q02410 651-752, limits assumed, looked up): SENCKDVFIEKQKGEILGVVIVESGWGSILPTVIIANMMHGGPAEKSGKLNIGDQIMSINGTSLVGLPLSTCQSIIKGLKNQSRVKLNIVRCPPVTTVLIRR

T2: APBA2_1, Q99767
T2 sequence (Q99767 563-664, limits assumed, looked up): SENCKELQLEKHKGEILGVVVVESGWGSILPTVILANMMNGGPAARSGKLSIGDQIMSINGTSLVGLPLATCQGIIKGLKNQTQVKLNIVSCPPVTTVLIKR

T3: ARHGAP21, Q5T5U3
T3 sequence (Q5T5U3 45-169, limits assumed, looked up): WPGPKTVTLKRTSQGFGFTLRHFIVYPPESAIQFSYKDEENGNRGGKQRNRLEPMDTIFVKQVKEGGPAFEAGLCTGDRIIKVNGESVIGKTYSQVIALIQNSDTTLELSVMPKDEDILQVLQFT

T4: DLG3_3, Q92796
T4 sequence (Q92796 374-475, limits assumed, looked up): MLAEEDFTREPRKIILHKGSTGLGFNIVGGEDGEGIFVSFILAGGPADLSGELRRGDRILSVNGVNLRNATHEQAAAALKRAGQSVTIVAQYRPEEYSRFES

T5: LRRC7, Q96NW7
T5 sequence (Q96NW7 1440-1537, limits assumed, looked up): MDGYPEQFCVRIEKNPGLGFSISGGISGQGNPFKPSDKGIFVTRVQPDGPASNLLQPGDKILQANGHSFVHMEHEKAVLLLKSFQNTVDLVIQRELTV

T6: MPP6, Q9NZW5
T6 sequence (Q9NZW5 125-219, limits assumed, looked up): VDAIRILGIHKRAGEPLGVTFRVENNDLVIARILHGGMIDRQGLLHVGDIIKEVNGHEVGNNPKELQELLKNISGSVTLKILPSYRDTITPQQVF

T7: PARD3B_1, Q8TEW8
T7 sequence (Q8TEW8 196-299, limits assumed, looked up): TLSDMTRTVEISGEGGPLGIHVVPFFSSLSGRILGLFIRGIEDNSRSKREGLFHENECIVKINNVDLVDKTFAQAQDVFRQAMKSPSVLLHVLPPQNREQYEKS

T8: PDZRN3_1, Q9UPQ7
T8 sequence (Q9UPQ7 244-349, limits assumed, looked up): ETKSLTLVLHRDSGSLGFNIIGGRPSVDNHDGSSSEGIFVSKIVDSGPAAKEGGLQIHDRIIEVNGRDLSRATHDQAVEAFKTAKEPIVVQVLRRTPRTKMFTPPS

T9: SIPA1L2, Q9P2F8
T9 sequence (Q9P2F8 945-1036, limits assumed, looked up): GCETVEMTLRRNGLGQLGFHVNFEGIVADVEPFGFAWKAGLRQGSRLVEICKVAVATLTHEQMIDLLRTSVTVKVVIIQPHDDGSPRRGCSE

T10: SNTB1, Q13884
T10 sequence (Q13884 107-205, limits assumed, looked up): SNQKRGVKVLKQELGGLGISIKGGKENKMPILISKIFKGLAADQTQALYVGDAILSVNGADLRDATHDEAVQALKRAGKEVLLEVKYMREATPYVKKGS

T11: SNTG2, Q9NY99
T11 sequence (Q9NY99 68-166, limits assumed, looked up): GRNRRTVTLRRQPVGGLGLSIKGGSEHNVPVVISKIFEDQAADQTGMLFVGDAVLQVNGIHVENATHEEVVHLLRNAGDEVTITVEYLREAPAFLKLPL

B1: AXIN1_int, O15169 (peptide)
chain: TLSLTDSSVDGIPPYR

biological target: T1, APBA1_1, Q02410; test: holdup assay; set-up: key: below the threshold = too weak to quantify, mostly under pKd 3.1 to 4; conditions: plain residues with an end cap or a label only (N-terminal biotin on a linker: gsgsgs; C-terminal amide)

Q: Which pKd does the source give for B1 here?
A: below the threshold

biological target: T2, APBA2_1, Q99767; test: holdup assay; set-up: key: below the threshold = too weak to quantify, mostly under pKd 3.1 to 4; conditions: plain residues with an end cap or a label only (N-terminal biotin on a linker: gsgsgs; C-terminal amide)

Q: With B1 as the binder, how does the pKd read?
A: below the threshold

biological target: T3, ARHGAP21, Q5T5U3; test: holdup assay; set-up: key: below the threshold = too weak to quantify, mostly under pKd 3.1 to 4; conditions: plain residues with an end cap or a label only (N-terminal biotin on a linker: gsgsgs; C-terminal amide)

Q: For B1, which pKd is on record?
A: below the threshold

biological target: T4, DLG3_3, Q92796; test: holdup assay; set-up: key: below the threshold = too weak to quantify, mostly under pKd 3.1 to 4; conditions: plain residues with an end cap or a label only (N-terminal biotin on a linker: gsgsgs; C-terminal amide)

Q: For B1, which pKd is on record?
A: below the threshold

biological target: DLG4_1, P78352; test: holdup assay; set-up: key: below the threshold = too weak to quantify, mostly under pKd 3.1 to 4; conditions: plain residues with an end cap or a label only (N-terminal biotin on a linker: gsgsgs; C-terminal amide)
Sequence (P78352 62-152): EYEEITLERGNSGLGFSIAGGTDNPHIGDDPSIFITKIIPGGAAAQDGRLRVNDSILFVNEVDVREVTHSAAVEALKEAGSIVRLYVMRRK

Q: B1 was tested. Which pKd did it give?
A: below the threshold

biological target: FRMPD4, Q14CM0; test: holdup assay; set-up: key: below the threshold = too weak to quantify, mostly under pKd 3.1 to 4; conditions: plain residues with an end cap or a label only (N-terminal biotin on a linker: gsgsgs; C-terminal amide)
Sequence (Q14CM0 67-160): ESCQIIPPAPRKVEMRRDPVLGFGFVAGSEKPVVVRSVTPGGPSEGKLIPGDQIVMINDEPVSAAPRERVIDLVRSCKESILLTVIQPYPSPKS

Q: B1 was tested. Which pKd did it give?
A: below the threshold

biological target: GRID2IP_2, A4D2P6; test: holdup assay; set-up: key: below the threshold = too weak to quantify, mostly under pKd 3.1 to 4; conditions: plain residues with an end cap or a label only (N-terminal biotin on a linker: gsgsgs; C-terminal amide)
Sequence (A4D2P6 272-370): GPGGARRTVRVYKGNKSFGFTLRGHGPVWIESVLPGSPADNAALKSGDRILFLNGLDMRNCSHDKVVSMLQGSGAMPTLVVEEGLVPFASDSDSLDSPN

Q: How did the pKd turn out when B1 was run?
A: below the threshold

biological target: GRIP2_3, Q9C0E4; test: holdup assay; set-up: key: below the threshold = too weak to quantify, mostly under pKd 3.1 to 4; conditions: plain residues with an end cap or a label only (N-terminal biotin on a linker: gsgsgs; C-terminal amide)
Sequence (Q9C0E4 238-339): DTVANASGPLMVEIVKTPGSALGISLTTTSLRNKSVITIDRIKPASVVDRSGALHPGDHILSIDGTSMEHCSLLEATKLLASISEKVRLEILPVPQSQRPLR

Q: With B1 as the binder, how does the pKd read?
A: below the threshold

biological target: IL16_3, Q14005; test: holdup assay; set-up: key: below the threshold = too weak to quantify, mostly under pKd 3.1 to 4; conditions: plain residues with an end cap or a label only (N-terminal biotin on a linker: gsgsgs; C-terminal amide)
Sequence (Q14005 1107-1207): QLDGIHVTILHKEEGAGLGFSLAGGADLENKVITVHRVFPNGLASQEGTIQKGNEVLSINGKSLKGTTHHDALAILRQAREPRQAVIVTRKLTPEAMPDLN

Q: B1 was tested. Which pKd did it give?
A: below the threshold

biological target: Inadl_10, Q8NI35; test: holdup assay; set-up: key: below the threshold = too weak to quantify, mostly under pKd 3.1 to 4; conditions: plain residues with an end cap or a label only (N-terminal biotin on a linker: gsgsgs; C-terminal amide)
Sequence (Q8NI35 1673-1763): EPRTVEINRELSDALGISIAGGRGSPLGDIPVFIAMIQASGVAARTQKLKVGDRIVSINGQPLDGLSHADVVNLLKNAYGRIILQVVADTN

Q: B1 was tested. Which pKd did it give?
A: below the threshold

biological target: Inadl_3, Q8NI35; test: holdup assay; set-up: key: below the threshold = too weak to quantify, mostly under pKd 3.1 to 4; conditions: plain residues with an end cap or a label only (N-terminal biotin on a linker: gsgsgs; C-terminal amide)
Sequence (Q8NI35 359-469): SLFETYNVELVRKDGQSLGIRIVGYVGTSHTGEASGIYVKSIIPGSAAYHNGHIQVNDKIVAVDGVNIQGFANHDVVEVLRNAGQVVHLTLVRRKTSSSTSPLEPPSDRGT

Q: With B1 as the binder, how does the pKd read?
A: below the threshold

biological target: Inadl_6, Q8NI35; test: holdup assay; set-up: key: below the threshold = too weak to quantify, mostly under pKd 3.1 to 4; conditions: plain residues with an end cap or a label only (N-terminal biotin on a linker: gsgsgs; C-terminal amide)
Sequence (Q8NI35 1058-1167): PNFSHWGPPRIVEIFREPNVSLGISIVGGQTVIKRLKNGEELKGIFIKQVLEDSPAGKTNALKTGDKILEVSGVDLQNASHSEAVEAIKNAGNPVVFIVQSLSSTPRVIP

Q: Which pKd does the source give for B1 here?
A: below the threshold

biological target: LIMK2, P53671; test: holdup assay; set-up: key: below the threshold = too weak to quantify, mostly under pKd 3.1 to 4; conditions: plain residues with an end cap or a label only (N-terminal biotin on a linker: gsgsgs; C-terminal amide)
Sequence (P53671 143-248): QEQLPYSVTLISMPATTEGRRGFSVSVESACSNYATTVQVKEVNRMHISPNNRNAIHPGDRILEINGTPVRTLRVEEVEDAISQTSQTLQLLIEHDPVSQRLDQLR

Q: How did the pKd turn out when B1 was run?
A: below the threshold

biological target: LNX1_3, Q8TBB1; test: holdup assay; set-up: key: below the threshold = too weak to quantify, mostly under pKd 3.1 to 4; conditions: plain residues with an end cap or a label only (N-terminal biotin on a linker: gsgsgs; C-terminal amide)
Sequence (Q8TBB1 500-596): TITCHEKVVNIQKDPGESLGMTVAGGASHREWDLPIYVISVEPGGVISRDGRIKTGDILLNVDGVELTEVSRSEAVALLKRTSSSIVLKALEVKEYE

Q: Which pKd does the source give for B1 here?
A: below the threshold

biological target: T5, LRRC7, Q96NW7; test: holdup assay; set-up: key: below the threshold = too weak to quantify, mostly under pKd 3.1 to 4; conditions: plain residues with an end cap or a label only (N-terminal biotin on a linker: gsgsgs; C-terminal amide)

Q: B1 was tested. Which pKd did it give?
A: below the threshold

biological target: T6, MPP6, Q9NZW5; test: holdup assay; set-up: key: below the threshold = too weak to quantify, mostly under pKd 3.1 to 4; conditions: plain residues with an end cap or a label only (N-terminal biotin on a linker: gsgsgs; C-terminal amide)

Q: How did the pKd turn out when B1 was run?
A: 3.93

biological target: NHERF4_4, Q86UT5; test: holdup assay; set-up: key: below the threshold = too weak to quantify, mostly under pKd 3.1 to 4; conditions: plain residues with an end cap or a label only (N-terminal biotin on a linker: gsgsgs; C-terminal amide)
Sequence (Q86UT5 464-550): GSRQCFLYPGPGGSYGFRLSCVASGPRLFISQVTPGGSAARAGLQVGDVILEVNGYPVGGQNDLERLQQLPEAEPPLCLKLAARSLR

Q: With B1 as the binder, how does the pKd read?
A: below the threshold

biological target: T7, PARD3B_1, Q8TEW8; test: holdup assay; set-up: key: below the threshold = too weak to quantify, mostly under pKd 3.1 to 4; conditions: plain residues with an end cap or a label only (N-terminal biotin on a linker: gsgsgs; C-terminal amide)

Q: B1 was tested. Which pKd did it give?
A: below the threshold

biological target: T8, PDZRN3_1, Q9UPQ7; test: holdup assay; set-up: key: below the threshold = too weak to quantify, mostly under pKd 3.1 to 4; conditions: plain residues with an end cap or a label only (N-terminal biotin on a linker: gsgsgs; C-terminal amide)

Q: B1 was tested. Which pKd did it give?
A: below the threshold

biological target: PDZRN4_1, Q6ZMN7; test: holdup assay; set-up: key: below the threshold = too weak to quantify, mostly under pKd 3.1 to 4; conditions: plain residues with an end cap or a label only (N-terminal biotin on a linker: gsgsgs; C-terminal amide)
Sequence (Q6ZMN7 213-318): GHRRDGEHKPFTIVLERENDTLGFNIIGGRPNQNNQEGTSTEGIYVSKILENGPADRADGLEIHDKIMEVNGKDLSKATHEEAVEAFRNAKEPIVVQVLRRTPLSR

Q: For B1, which pKd is on record?
A: below the threshold

biological target: PICK1, Q9NRD5; test: holdup assay; set-up: key: below the threshold = too weak to quantify, mostly under pKd 3.1 to 4; conditions: plain residues with an end cap or a label only (N-terminal biotin on a linker: gsgsgs; C-terminal amide)
Sequence (Q9NRD5 17-115): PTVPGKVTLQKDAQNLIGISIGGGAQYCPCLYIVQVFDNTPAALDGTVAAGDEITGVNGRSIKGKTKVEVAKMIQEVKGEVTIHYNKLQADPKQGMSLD

Q: How did the pKd turn out when B1 was run?
A: below the threshold

biological target: T9, SIPA1L2, Q9P2F8; test: holdup assay; set-up: key: below the threshold = too weak to quantify, mostly under pKd 3.1 to 4; conditions: plain residues with an end cap or a label only (N-terminal biotin on a linker: gsgsgs; C-terminal amide)

Q: For B1, which pKd is on record?
A: below the threshold

biological target: T10, SNTB1, Q13884; test: holdup assay; set-up: key: below the threshold = too weak to quantify, mostly under pKd 3.1 to 4; conditions: plain residues with an end cap or a label only (N-terminal biotin on a linker: gsgsgs; C-terminal amide)

Q: For B1, which pKd is on record?
A: below the threshold

biological target: T11, SNTG2, Q9NY99; test: holdup assay; set-up: key: below the threshold = too weak to quantify, mostly under pKd 3.1 to 4; conditions: plain residues with an end cap or a label only (N-terminal biotin on a linker: gsgsgs; C-terminal amide)

Q: B1 was tested. Which pKd did it give?
A: below the threshold

biological target: SNX27, Q96L92; test: holdup assay; set-up: key: below the threshold = too weak to quantify, mostly under pKd 3.1 to 4; conditions: plain residues with an end cap or a label only (N-terminal biotin on a linker: gsgsgs; C-terminal amide)

Q: B1 was tested. Which pKd did it give?
A: below the threshold
